From patent publication US20120316071A1 (published 2012)
Values belong to the binder of their own block, whether it stands above or below them.

Legend:
[1] = biological target: T1, rHuman IGF-1 sR, CF (R&D Systems Cat#391-GR) (human, UniProt P08069 31-932); test: ECL multispot (MSD) assay, spotted antigen; Fab 2.00 (head prints uM)
T1 construct: Bought soluble receptor; The column head prints only 'IGF-1'; also called insulin-like growth factor-1 soluble receptor

[2] = biological target: T2, rHuman CD44/Fc Chimera, CF (R&D Systems Cat#3660-CD) (human, UniProt P16070 21-220); test: ECL Multispot (MSD) assay, antigen spotted on plate, 10 nM Fab; blank spot of this row 487
T2 construct: Bought reagent; Fc part of the bought chimera not given

[3] = biological target: T3, rHuman EGF R/Fc Chimera, CF (R&D Systems Cat#344-ER) (human, UniProt P00533 25-645); test: as above
T3 construct: Bought reagent; also called epidermal growth factor receptor; Fc part of the bought chimera not given

[4] = biological target: T4, rHuman HGF R/c-MET/Fc Chimera, CF (R&D Systems Cat#358-MT/CF) (human, UniProt P08581 25-932); test: as above
T4 construct: Bought reagent; also called HGF R/Fc; hepatocyte growth factor receptor; Fc part of the bought chimera not given
T4 sequence (P08581 25-932, change not shown): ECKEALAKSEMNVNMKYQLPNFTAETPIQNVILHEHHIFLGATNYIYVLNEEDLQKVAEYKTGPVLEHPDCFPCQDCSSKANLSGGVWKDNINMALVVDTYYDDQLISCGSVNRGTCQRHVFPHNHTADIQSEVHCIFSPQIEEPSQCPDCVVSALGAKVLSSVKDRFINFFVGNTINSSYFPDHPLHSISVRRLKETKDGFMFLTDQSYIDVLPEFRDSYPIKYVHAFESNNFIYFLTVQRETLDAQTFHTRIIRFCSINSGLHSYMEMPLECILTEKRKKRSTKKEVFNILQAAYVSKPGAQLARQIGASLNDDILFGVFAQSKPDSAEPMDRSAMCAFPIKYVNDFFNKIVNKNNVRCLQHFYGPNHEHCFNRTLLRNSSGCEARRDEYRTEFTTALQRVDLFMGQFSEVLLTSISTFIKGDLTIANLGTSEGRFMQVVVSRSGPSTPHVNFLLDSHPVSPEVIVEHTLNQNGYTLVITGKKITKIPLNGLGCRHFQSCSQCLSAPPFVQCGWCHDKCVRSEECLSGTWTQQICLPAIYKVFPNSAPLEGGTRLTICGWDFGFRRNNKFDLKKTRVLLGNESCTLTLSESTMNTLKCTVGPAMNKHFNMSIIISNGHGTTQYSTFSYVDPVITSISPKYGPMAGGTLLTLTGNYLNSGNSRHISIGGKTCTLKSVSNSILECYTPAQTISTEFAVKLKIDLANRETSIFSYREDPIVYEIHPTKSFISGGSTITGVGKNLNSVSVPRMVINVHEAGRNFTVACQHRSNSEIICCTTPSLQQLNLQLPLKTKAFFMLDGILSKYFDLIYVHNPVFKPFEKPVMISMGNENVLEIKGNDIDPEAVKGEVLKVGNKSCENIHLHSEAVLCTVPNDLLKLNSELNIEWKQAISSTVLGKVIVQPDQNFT

[5] = biological target: T5, rHuman Notch-1/Fc Chimera, CF (R&D Systems Cat#3647-TK) (human, UniProt P46531 19-526); test: as above
T5 construct: Bought reagent; Fc part of the bought chimera not given

[6] = biological target: T6, rHuman ErbB2/Fc Chimera, CF (R&D Systems Cat#1129-ER) (human, UniProt P04626 23-652); test: as above
T6 construct: Bought reagent; also called human epidermal growth factor 2 receptor; Fc part of the bought chimera not given

[7] = biological target: T7, rHuman Erythropoietin R/Fc Chimera, CF (R&D Systems Cat#963-ER) (human, UniProt P19235 25-250); test: as above
T7 construct: Bought reagent; also called EPO R; EPO R/Fc; Fc part of the bought chimera not given
T7 sequence (looked up): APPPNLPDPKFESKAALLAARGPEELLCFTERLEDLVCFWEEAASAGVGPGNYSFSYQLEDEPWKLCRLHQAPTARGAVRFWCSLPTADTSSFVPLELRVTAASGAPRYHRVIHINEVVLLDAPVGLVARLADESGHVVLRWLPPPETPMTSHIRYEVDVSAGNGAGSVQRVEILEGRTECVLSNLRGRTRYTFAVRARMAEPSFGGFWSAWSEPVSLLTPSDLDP

[8] = biological target: T8, rHuman P-Cadherin/Fc Chimera, CF (R&D Systems Cat#861-PC) (human, UniProt P22223 108-654); test: as above
T8 construct: Bought reagent; Fc part of the bought chimera not given

[9] = biological target: T9, rHuman IGF-1 sR, CF (R&D Systems Cat#391-GR) (human, UniProt P08069 31-932); test: as above
T9 construct: Bought soluble receptor; The column head prints only 'IGF-1'; also called insulin-like growth factor-1 soluble receptor

[10] = biological target: T10, rHuman ErbB2/Fc Chimera, CF (R&D Systems Cat#1129-ER) (human, UniProt P04626 23-652); test: Multispot ECL (MSD) titration; antigen spotted on plate; Fab 232.5 nM; blank spot 460
T10 construct: Bought Fc chimera; also called human epidermal growth factor 2 receptor; Fc part of the bought chimera not given

[11] = biological target: T11, Recombinant Human DLL4 (R&D Systems Cat#1506-D4/CF) (human, UniProt Q9NR61 27-524); test: Multispot ECL (MSD), antigen spotted on plate, Fab 31.3 nM; blank spot 250
T11 construct: Bought recombinant protein; also called rHuman DLL4; delta-like protein 4

[12] = biological target: T12, rHuman IGF-1 sR, CF (R&D Systems Cat#391-GR) (human, UniProt P08069 31-932); test: as above
T12 construct: Bought recombinant soluble receptor; also called insulin-like growth factor-1 soluble receptor

[13] = biological target: T13, rHuman Erythropoietin R/Fc Chimera, CF (R&D Systems Cat#963-ER) (human, UniProt P19235 25-250); test: as above
T13 construct: Bought recombinant protein; also called EPO R/Fc; Epo R; Fc part of the bought chimera not given
T13 sequence (looked up): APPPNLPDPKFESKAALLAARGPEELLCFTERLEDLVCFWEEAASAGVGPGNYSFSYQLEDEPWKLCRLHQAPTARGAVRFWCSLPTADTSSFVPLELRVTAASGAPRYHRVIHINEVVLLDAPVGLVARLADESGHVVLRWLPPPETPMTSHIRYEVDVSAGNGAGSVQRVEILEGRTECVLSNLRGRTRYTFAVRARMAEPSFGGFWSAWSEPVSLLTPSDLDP

[14] = biological target: T14, rHuman Notch-1/Fc Chimera, CF (R&D Systems Cat#3647-TK) (human, UniProt P46531 19-526); test: as above
T14 construct: Bought recombinant protein; Fc part of the bought chimera not given

[15] = biological target: T11, Recombinant Human DLL4 (R&D Systems …); test: Multispot ECL (MSD), antigen spotted on plate, Fab 500 nM; blank spot 680
[16] = biological target: T12, rHuman IGF-1 sR, CF (R&D Systems …); test: as above
[17] = biological target: T13, rHuman Erythropoietin R/Fc Chimera, CF …; test: as above
[18] = biological target: T14, rHuman Notch-1/Fc Chimera, CF (R&D …); test: as above

B2: Fab VH1-46_IGHD6-6*01_IGHJ1*01 S102A/S103P/S104F (APF) & L6_IGKJ1*01 (Fab, V domains shown)
VH: QVQLVQSGAEVKKPGASVKVSCKASGYTFTSYYMHWVRQAPGQGLEWMGIINPSGGSTSYAQKFQGRVTMTRDTSTSTVYMELSSLRSEDTAVYYCAREEYAPFSAEYFQHWGQGTLVTVSS
VL: not shown
notes: Tested as a Fab made in E. coli; also called H:APF & L:wt; APF triple mutant
ECL signal [2]: 363
ECL signal [3]: 206
ECL signal [4]: 379
ECL signal [5]: 450
ECL signal [6]: 381
ECL signal [7]: 326
ECL signal [8]: 384
ECL signal [9]: 453

B4: Fab VH1-46_IGHD6-13*01_IGHJ4*01 & B3_IGKJ1*01 (Fab, V domains shown)
VH: QVQLVQSGAEVKKPGASVKVSCKASGYTFTSYYMHWVRQAPGQGLEWMGIINPSGGSTSYAQKFQGRVTMTRDTSTSTVYMELSSLRSEDTAVYYCAREGYSSSWYDYFDYWGQGTLVTVSS
VL: not shown
notes: Germline Fab made in E. coli; VH was cloned into Plasmid A (CH1, His6 and Flag tags) and the kappa VL into Plasmid C (kappa CL)
ECL signal [11]: 528
ECL signal [12]: 385
ECL signal [13]: 7880
ECL signal [14]: 563
ECL signal [15]: 2320
ECL signal [16]: 1330
ECL signal [17]: 10300
ECL signal [18]: 1980

The next lines start with the values.

ECL signal/noise ratio [1]: 3.7
B1: Fab VH5-51_IGHD5-18*01>3_IGHJ4*01 G100K/G104T & V3-4_IGLJ1*01 (Fab, V domains shown)
VH: EVQLVQSGAEVKKPGESLKISCKGSGYSFTSYWIGWVRQMPGKGLEWMGIIYPGDSDTRYSPSFQGQVTISADKSISTAYLQWSSLKASDTAMYYCARRKYSYTYDYFDYWGQGTLVTVSS
VL: QTVVTQEPSFSVSPGGTVTLTCGLSSGSVSTSYYPSWYQQTPGQAPRTLIYSTNTRSSGVPDRFSGSILGNKAALTITGAQADDESDYYCVLYMGSGISYVFGTGTKVTVL
notes: Tested as a Fab; The constant parts are the same as for the parent Fab (CH1 with His6/Flag tags, lambda CL); also called KT double mutant; H:KT

ECL signal [10]: 779
B3: Fab VH1-46_IGHD6-13*01_IGHJ4*01 & O1_IGKJ1*01 (Fab, V domains shown)
VH: QVQLVQSGAEVKKPGASVKVSCKASGYTFTSYYMHWVRQAPGQGLEWMGIINPSGGSTSYAQKFQGRVTMTRDTSTSTVYMELSSLRSEDTAVYYCAREGYSSSWYDYFDYWGQGTLVTVSS
VL: DIVMTQTPLSLPVTPGEPASISCRSSQSLLDSDDGNTYLDWYLQKPGQSPQLLIYTLSYRASGVPDRFSGSGSGTDFTLKISRVEAEDVGVYYCMQRIEFPSWTFGQGTKVEIKR
notes: Germline library Fab expressed in E. coli; VH was cloned into Plasmid A (CH1 constant region, His6 and Flag tags); The kappa VL was cloned into Plasmid C (kappa CL)
